First the molecules themselves.
B1: DbfS sensory domain, DbfS^SD-6×His (residues 43 to 171) (domain or fragment)
chain: NLIHQYLLEDVQNQLQLSMDEITANLEANPQGQLTLTTRLADPRFTQPYSGLYWSATLGDQTLRSRSLWDRFLTEETHVHGTIYLGAKEESLIVLKRTVYLPEFSQPITITIGLDDAPLKATLQRVSKE
notes: DbfS, sensor histidine kinase of the DbfRS two-component system of Vibrio cholerae (gene vc_1639); periplasmic sensory domain, residues 43 to 171; The vector is pET-15b; also called unlabeled DbfS; VC_1639; source: E. coli BL21 (DE3), pET-15b, purified (Ni-NTA)
B2: DbfQ, processed (residues 32 to 135, excluding the secretion signal), 6×His tag cleaved (natural protein)
chain: DNKVRDWEQGSYREGTQIEIDEDQDDVYRAVQKGLIRPFAELYATVDQQLNGRLIKVELDEDDDEWIYELKLVYDNQVFRVEYNAATLELMSIRGRNVIRAIKK
modifications: in the MST experiments only: covalently labeled with an amine-reactive Red-NHS dye
notes: DbfQ, small periplasmic PepSY-domain protein of Vibrio cholerae (135-amino-acid precursor, gene vc_1637); processed form, residues 32 to 135 without the secretion signal; also called cleaved DbfQ; DbfQ (6×His tag-cleaved)

In assay [1] the target is B2. Description: MST; titration to saturation for stoichiometry: DbfQ-NHS 100 nM, unlabeled DbfS 0 nM to 40,000 nM, 25 °C. The conditions noted are these: both partners purified.
In assay [2] the target is B1. Nature of the assay: MST; Red-NHS-labeled DbfQ constant at 20 nM, unlabeled DbfS 0.49 nM to 16,105 nM; buffer M (20 mM MES, 100 mM NaCl, 10% glycerol) with 0.05% Tween 20, pH 7.5, 25 °C; 1:1 binding model (PALMIST). As to conditions: both partners purified.

These results are taken from publication PMC12714742, “A small periplasmic protein governs broad physiological adaptations in Vibrio cholerae via regulation of the DbfRS two-component system” (Nature Communications, 2025).

By stoichiometry N is commonly meant the number of molecules, sites or subunits per partner or assembly. Take B1: in assay [1], the “stoichiometry N” value is 1.
Usually Kd stands for the free concentration of one partner at which half of the binding sites on the other are occupied at equilibrium, for simple one-to-one binding. In assay [2], B2 gave a Kd of 30 nM.
